Measured values reported in patent US20020086983A1 (THOMAS JEFFERSON UNIVERSITY, published 2002).

T1: T7-FLAME-2 (Homo sapiens (Human), UniProt O75618 1-318)
T1 sequence: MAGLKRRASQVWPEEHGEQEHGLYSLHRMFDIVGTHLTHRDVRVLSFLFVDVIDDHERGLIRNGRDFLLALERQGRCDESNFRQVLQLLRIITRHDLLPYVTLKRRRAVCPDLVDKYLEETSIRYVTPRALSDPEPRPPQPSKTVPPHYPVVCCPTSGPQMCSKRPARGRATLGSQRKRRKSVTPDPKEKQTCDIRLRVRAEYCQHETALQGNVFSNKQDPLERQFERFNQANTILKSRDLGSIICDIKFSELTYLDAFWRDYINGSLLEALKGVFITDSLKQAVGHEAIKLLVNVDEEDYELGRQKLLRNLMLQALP

B1: Flag-tagged Fas (receptor, UniProt P25445 26-335, looked up, not shown: small tags and cut ends)
chain: QVTDINSKGLELRKTVTTVETQNLEGLHHDGQFCHKPCPPGERKARDCTVNGDEPDCVPCQEGKEYTDKAHFSSKCRRCRLCDEGHGLEVEINCTRTQNTKCRCKPNFFCNSTVCEHCDPCTKCEHGIIKECTLTSNTKCKEEGSRSNLGWLCLLLLPIPLIVWVKRKEVQKTCRKHRKENQGSHESPTLNPETVAINLSDVDLSKYITTIAGVMTLSQVKGFVRKNGVNEAKIDEIKNDNVQDTAEQKVQLLRNWHQLHGKKEAYDTLIKDLKKANLCTLAEKIQTIILKDITSDSENSNFRNEIQSLV
notes: Expressed in 293T cells and immunoprecipitated with the anti-Flag antibody
B2: B42-FADD-DED (murine FADD-DED, residues 1-78) (other, UniProt Q61160 1-78, looked up, not shown: large carriers)
chain: MDPFLVLLHSLSGSLSGNDLMELKFLCRERVSKRKLERVQSGLDLFTVLLEQNDLERGHTGLLRELLASLRRHDLLQR
notes: range 1-78

Key:
T7-FLAME-2 = molecular target: T1, T7-FLAME-2; assay: co-immunoprecipitation from transfected 293T cells with Flag-tagged Fas, with or without T7-FADD
Protocol: After 34-36 h, extracts were prepared and immunoprecipitated with a monoclonal antibody to the Flag-epitope. […] Cells were lysed in a lysis buffer (50 mM Tris, pH 7.6, 150 mM NaCl, 0.1 NP-40) and incubated with anti Flag-M5 monoclonal antibody (IBI Kodak). The immune complexes were precipitated with protein-A/G-Sepharose, washed and then eluted by boiling in SDS-sample buffer. The eluted proteins were resolved by SDS-PAGE and detected by Western analysis with a HRP-conjugated T7-antibody (Novagen). The samples were analyzed by SDS-PAGE and Western blotted with a horseradish peroxidase (HRP)-conjugated T7-antibody. All extracts were immunoblotted with anti-Flag and anti-T7 to verify expression of the encoded proteins.

[1] = molecular target: LexA-FLAME-1-FDH (residues 1-160) (human, UniProt O15519 1-160); assay: yeast two-hybrid assay

Row | Binder | binding result (T7-FLAME-2) | binding result [1]
1 | B1 | no binding | 
2 | B2 |  | binds
